Patent US20080119430A1

How the values were obtained:
Assay in all cases: cell-based or functional assay
[1] = molecular target: Rac (active Rac-GTP, endogenous in HUVECs) (human) (UniProt P31749)
[2] = molecular target: Cdc42 (active Cdc42-GTP, endogenous in HUVECs) (human) (UniProt P60953)
[3] = molecular target: Rac (active Rac-GTP, endogenous in NIH3T3 cells)

Cdc42 (active Cdc42-GTP, endogenous in HUVECs) (human), sequence (P60953 1-188 limits assumed): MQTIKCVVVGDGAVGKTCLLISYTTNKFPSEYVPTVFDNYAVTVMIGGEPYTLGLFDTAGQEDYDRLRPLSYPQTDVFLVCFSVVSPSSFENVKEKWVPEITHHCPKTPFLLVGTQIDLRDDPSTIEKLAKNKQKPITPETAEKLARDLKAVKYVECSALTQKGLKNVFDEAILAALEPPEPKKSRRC
Rac (active Rac-GTP, endogenous in HUVECs) (human), sequence (P31749 whole entry): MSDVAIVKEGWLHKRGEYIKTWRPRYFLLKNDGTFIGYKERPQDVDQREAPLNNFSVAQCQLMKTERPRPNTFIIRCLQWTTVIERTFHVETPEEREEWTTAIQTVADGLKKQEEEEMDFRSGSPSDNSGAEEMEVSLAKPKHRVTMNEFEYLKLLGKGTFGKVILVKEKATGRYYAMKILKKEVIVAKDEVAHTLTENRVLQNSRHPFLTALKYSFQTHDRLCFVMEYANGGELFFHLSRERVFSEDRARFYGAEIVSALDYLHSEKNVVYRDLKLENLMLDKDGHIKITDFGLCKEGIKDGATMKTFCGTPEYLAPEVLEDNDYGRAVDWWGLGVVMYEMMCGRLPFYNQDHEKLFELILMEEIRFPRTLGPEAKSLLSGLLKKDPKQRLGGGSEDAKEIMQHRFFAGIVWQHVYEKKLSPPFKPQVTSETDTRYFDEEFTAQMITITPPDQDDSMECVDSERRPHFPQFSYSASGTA

Substance “BNO69 (endogenous protein in HUVECs, knocked down by adenoviral antisense BNO69R) (from UniProt Q8N264 131-748) (enzyme)” has a fold increase in active Rac in HUVECs after BNO69 knockdown with BNO69R, compared to empty vector [1] of 1.1 fold and a fold increase in active Cdc42 in HUVECs after BNO69 knockdown with BNO69R, compared to empty vector [2] of 1.1 fold.

Substance “BNO69 (endogenous protein in NIH3T3 cells, knocked down by retroviral antisense BNO69R) (enzyme)” has an increase in Rac activity (Rac-GTP pull-down) in NIH3T3 cells after inhibition of BNO69 expression with antisense BNO69R [3] of 3 fold.
